Entries after “also recorded” stand apart in the source; their conditions may differ.

A word on the Kd: it is a measure of binding affinity in units of concentration.

The test system of one test is H460 xenograft tumors. The test is classed as in vivo. As to conditions: 3.19.3 10 mg/kg 2×wk i.p., AZD4877 10 mg/kg q4dx2 i.p., combination of both. The protocol: The anti-tumor activity of 3.19.3 was evaluated in combination with AZD4877 in the
H460 xenograft model of lung cancer. H460 cells were cultured in flasks as routine until the cells reached sub-confluence. Cell suspensions containing approximately 3×10E6 cells were injected subcutaneously into the right flank of male NCr nu/nu mice. When the tumor volume reached 200 mm^3, the mice were randomized in treatment groups of 8-10 mice and the treatments were initiated. 3.19.3 (10 mg/kg) in saline was injected intraperitoneally, twice per week for 2 weeks. AZD4877 (10 mg/kg) was administered by intraperitoneal administration following a q4d schedule. The dimensions of each tumor and body weights were measured at least twice per week. The volume of the tumor was calculated as: Volume=Length×(Width)×0.5 (cm^3).

A further test concerns the target Tie2 (Homo sapiens, UniProt Q02763). As to conditions: Maisonpierre et al., Science 277:55-60 (1997); read-out: affinity (Kd) for Tie2; cited from earlier work.
Test [1] relates to glucose 6 phosphate isomerase (G6PI) arthritis. Description: G6PI arthritis disease model, prophylactic. The test is classed as in vivo, male DBA/1J mice. The note with it: for clinical signs of disease progression (arthritic score) (in words): single agents.
Test [2] shares this test system. The test is described as follows: G6PI arthritis disease model, therapeutic. The test is classed as in vivo, male DBA/1J mice. As to conditions: after onset of clinical disease, MEDI1/5 alone, etanercept both doses. The protocol: The effect of treatment with MEDI 1/5 with or without etanercept was evaluated following onset of clinical disease in the glucose 6 phosphate isomerase (G6PI) arthritis disease model. G6PI-induced arthritis was induced in male DBA/1J mice and animals dosed therapeutically with test treatments.
Materials and Methods: The mice in this study were prepared similarly as presented in Example 12.
Dosing: This was a rolling admissions study: once an animal reached a clinical score of 3.5 to 5.0, it was randomly assigned to treatment groups (as outlined below) and dosing began. The day of initial dosing became study day 0 for that animal. Treatment groups were similar to those presented in Example 12.
Termination: Study was terminated 12 days post treatment initiation. No further endpoints were assessed on these animals.

Test [3] has as its system FGF2 mediated angiogenesis. Description: FGF2-induced Matrigel plug assay. The test is classed as in vivo, athymic mouse. The protocol:
The anti-Ang-2 antibody, MEDI1/5 was evaluated for anti-angiogenic effects in a FGF2 (basic FGF)-induced Matrigel™ plug assay. Recombinant murine FGF2 (rmFGF basic; R&D Systems) was pre-mixed with Matrigel™ (reduced growth factor, phenol red-free; Trevigen) at 1 μg/ml. Each 5-6 week old female athymic mouse was subcutaneously implanted with 500 gl of FGF2/Matrigel™ mixture. Antibody MEDI1/5 was administered 10 minutes prior to FGF2/Matrigel™ implantation and continued every three days given intraperitoneal at 1, 10, and 20 mg/kg for a total of 3 doses. The extent of angiogenesis was assessed after 10 days by measuring dextran functioning vessels. Mice were intervenously injected with 100 gl FITC-Dextran (250,000MW; Sigma) at 25 mg/ml in saline. Twenty minutes post FITC-Dextran injection, mice are humanely euthanized and plugs dissected out. Plugs are then placed in lysing matrix tubes A (MP Biomedicals) containing 1 ml of PBS and homogenized on FastPrep machine (MP Biomedicals) for 60 seconds at 6.0 M/S. Samples were then centrifuged at 10,000 rpm for 5 minutes and supernatant collected. 200 μl of each sample (in duplicates) was then placed into a white, clear bottom 96 well plate and FITC output was read on EnVision instrument (Perkin Elmer).
For histology purposes, plugs were harvested and placed into 10% neutral-buffered formalin, processed and then paraffin embedded. The paraffin embedded tissues were then sectioned and stained with hematoxylin and eosin.

Another test concerns retinal angiogenesis. Description: Retinal vascularization in mouse pups. The test is classed as in vivo, CD1 pups. The protocol: […] At p10, pups were anesthetized with isoflurane and then perfused with 12.5 mg/ml FITC-dextran (Vector Labs). A small slit was made in the cornea and the entire eye was removed from the optic cup before placing into 10% neutral buffered formalin. After 1 hour fixation in formalin, eyes were briefly rinsed in PBS and then placed in a dish of PBS for dissection. Retinas were carefully dissected and cut into a clover leaf formation prior to mounting onto a glass slide with Vectashield (Vector Labs). Images of flatmounts were examined and acquired using fluorescence microscopy (Nikon) with attached digital camera system.

For a further test, the target named is T1, Ang-2 (Homo sapiens, UniProt O15123).
T1 construct: purchased R & D Systems
T1 sequence (O15123 19-496): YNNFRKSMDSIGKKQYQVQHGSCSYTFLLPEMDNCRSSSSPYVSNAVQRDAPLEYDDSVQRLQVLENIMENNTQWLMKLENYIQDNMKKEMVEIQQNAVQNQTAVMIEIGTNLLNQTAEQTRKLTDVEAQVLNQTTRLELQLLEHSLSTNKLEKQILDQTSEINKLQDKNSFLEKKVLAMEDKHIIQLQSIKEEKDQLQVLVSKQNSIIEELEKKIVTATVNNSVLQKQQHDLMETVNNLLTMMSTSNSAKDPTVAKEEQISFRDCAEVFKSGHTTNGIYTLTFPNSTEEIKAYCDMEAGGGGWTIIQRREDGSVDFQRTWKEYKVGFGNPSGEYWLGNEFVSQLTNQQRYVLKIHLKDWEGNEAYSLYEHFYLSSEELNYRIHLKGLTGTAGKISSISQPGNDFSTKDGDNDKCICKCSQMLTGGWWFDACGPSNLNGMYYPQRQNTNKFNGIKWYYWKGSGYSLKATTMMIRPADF
Description: Competitive Tie-2 Fc/Ang2 ELISA. The test is classed as binding. As to conditions: competition with immobilized Tie-2; IgG1 or IgG2 format. The protocol:
In this example the Ang-2 antibody, 3.19.3, and a modified 3.19.3 antibody comprising a C49T (MEDI1/5) substitution were analyzed for Ang-2 binding in a competitive ELISA format assay.
Competitive Tie-2 Fc/Ang2 ELISA: Maxisorp ELISA plates (Nunc, Rochester, N.Y.) were coated with 100 μl of 4 μg/ml Tie-2 Fc (R & D Systems, Minneapolis, Minn.) in 0.1M carbonate buffer pH 9.4 (Pierce, Rockford, Ill.) and incubated overnight at 4° C. The following day, plates were blocked for 1 hour at room temperature with 200 μl of phosphate buffered saline (PBS) (Invitrogen, Carlsbad, Calif.) containing 0.5% bovine serum albumin (BSA) (Sigma, St. Louis, Mo.) and 0.1% Tween-20 (Sigma, St. Louis, Mo.). Plates were washed 3 times with wash buffer (PBS containing 0.05% Tween-20). 50 μl of 11-point serial tertiary dilutions (30 μg/ml high concentration) of 3.19.3 or modified anti-Ang2 antibody were plated, with PBS as a negative control. For antibody capture, 50 μl of 200 ng/ml Biotin Ang2 (R & D Systems, Minneapolis, Minn.) were added and plates were incubated for 2 hours at room temperature. Plates were washed 3 times with wash buffer. Following the wash, 100 ul of 1:5000 streptavidin HRP (Pierce, Rockford, Ill.) dilution in wash buffer were added and incubated for 1 hour at room temperature. […] Optical densities were measured at 450 nm with a microplate reader (Molecular Devices, Sunnyvale, Calif.).

Sequence of Tie2 (Q02763 23-1124, species assumed): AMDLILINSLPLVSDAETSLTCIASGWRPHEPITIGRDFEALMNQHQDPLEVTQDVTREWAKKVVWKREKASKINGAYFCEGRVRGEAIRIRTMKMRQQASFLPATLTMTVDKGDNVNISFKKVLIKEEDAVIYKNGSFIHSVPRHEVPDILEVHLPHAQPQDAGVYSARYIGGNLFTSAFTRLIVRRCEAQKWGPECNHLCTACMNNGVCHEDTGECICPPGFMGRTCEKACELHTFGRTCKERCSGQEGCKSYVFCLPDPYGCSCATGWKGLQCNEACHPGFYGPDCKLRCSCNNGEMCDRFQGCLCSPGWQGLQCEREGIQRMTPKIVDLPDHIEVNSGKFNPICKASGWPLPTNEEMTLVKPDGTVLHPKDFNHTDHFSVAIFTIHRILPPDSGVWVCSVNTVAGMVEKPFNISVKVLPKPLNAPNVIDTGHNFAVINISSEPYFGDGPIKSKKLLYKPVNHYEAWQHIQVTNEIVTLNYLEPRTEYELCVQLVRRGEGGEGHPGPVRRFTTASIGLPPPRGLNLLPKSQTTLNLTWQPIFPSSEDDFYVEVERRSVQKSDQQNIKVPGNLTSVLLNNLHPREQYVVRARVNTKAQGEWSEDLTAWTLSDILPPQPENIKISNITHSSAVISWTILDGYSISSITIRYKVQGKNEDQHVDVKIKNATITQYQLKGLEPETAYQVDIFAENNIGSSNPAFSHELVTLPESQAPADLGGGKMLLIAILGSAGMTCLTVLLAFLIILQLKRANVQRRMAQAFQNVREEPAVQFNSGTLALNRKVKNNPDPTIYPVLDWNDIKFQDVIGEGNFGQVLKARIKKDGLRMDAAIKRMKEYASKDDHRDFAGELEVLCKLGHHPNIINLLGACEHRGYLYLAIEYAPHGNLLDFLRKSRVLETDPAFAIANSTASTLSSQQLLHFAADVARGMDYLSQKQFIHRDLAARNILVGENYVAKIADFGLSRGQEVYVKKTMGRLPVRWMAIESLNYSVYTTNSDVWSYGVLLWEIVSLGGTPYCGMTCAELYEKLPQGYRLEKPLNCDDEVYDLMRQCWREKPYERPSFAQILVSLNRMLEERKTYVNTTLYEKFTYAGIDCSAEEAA

On to `Cc1ccc(C(=O)N(CCCN)C(c2nc3snc(C)c3c(=O)n2Cc2ccccc2)C(C)C)cc1` (centres unmarked) [AZD4877], for which the “% tumor growth inhibition” value in the test with H460 xenograft tumors worked out at 50%.
As to “Ang-2: angiopoietin, ligand of Tie2; antigen of the antibodies”, the Kd with Tie2 is 3 nM.
As for etanercept, the “% Disease free joints” value in test [1] (1 mg/kg etanercept, 1 mg/kg) is on record as 22%; in test [1] (4 mg/kg etanercept, 4 mg/kg) it was 53%; in test [1] (4 mg/kg etanercept, listed as enbrel, 4 mg/kg) it was 53%. In addition, the “clinical signs of disease progression (arthritic score) (in words)” value in test [1] is on record as “Reductions in clinical signs of disease progression; also recorded: reduction”; in test [2], “no effect on disease progression”.

B1: Ang-1: angiopoietin, ligand of Tie2 (protein, UniProt Q15389 16-498, looked up)
Angiopoietin-1: HIGCSNQRRSPENSGRRYNRIQHGQCAYTFILPEHDGNCRESTTDQYNTNALQRDAPHVEPDFSSQKLQHLEHVMENYTQWLQKLENYIVENMKSEMAQIQQNAVQNHTATMLEIGTSLLSQTAEQTRKLTDVETQVLNQTSRLEIQLLENSLSTYKLEKQLLQQTNEILKIHEKNSLLEHKILEMEGKHKEELDTLKEEKENLQGLVTRQTYIIQELEKQLNRATTNNSVLQKQQLELMDTVHNLVNLCTKEGVLLKGGKREEEKPFRDCADVYQAGFNKSGIYTIYINNMPEPKKVFCNMDVNGGGWTVIQHREDGSLDFQRGWKEYKMGFGNPSGEYWLGNEFIFAITSQRQYMLRIELMDWEGNRAYSQYDRFHIGNEKQNYRLYLKGHTGTAGKQSSLILHGADFSTKDADNDNCMCKCALMLTGGWWFDACGPSNLNGMFYTAGQNHGKLNGIKWHYFKGPSYSLRSTTMMIRPLDF
Turning to B1, the dissociation constant Kd in the test with Tie2 was 3 nM.

B2: MEDI1/5: anti-Ang-2 antibody with MEDI1 light chain (SEQ ID No. 3) and MEDI5 heavy chain (SEQ ID No. 7); isotype not stated (antibody)
VH: QVQLVESGGGVVQPGRSLRLSCAASGFTFTNYGMHWVRQAPGKGLEWVAVISHDGNNKYYVDSVKGRFTISRDNSKNTLYLQMNSLRAEDTAVYYCAREGIDFWSGLNWFDPWGQGTLVTVSS
light: EIVLTQSPGTLSLSPGERATLSCRASQSITGSYLAWYQQKPGQAPRLLITGASSWATGIPDRFSGSGSGTDFTLTISRLEPEDFAVYYCQQYSSSPITFGQGTRLEIKRTVAAPSVFIFPPSDEQLKSGTASVVCLLNNFYPREAKVQWKVDNALQSGNSQESVTEQDSKDSTYSLSSTLTLSKADYEKHKVYACEVTHQGLSSPVTKSFNRGEC
B2: the “vessels in plugs, hematoxylin and eosin staining (in words)” value in test [3] (FGF2+MEDI1/5 plugs vs FGF2 plugs alone) is “fewer vessels; also recorded: lower level of vascularization”. The “amount of FITC-dextran present in plugs” value in test [3] (MEDI1/5 1, 10, and 20 mg/kg i.p., 3 doses, FGF2 1 μg/ml plugs (FGF2 alone approximately 0.78 μg)) was in the range of 0.05 to 3 µg. Moreover, the “FITC-dextran content / angiogenesis in plugs (in words)” value in test [3] (MEDI1/5 1, 10 or 20 mg/kg i.p., vs FGF2 plugs) was “significant reduction in FITC-dextran; also recorded: significant reduction in angiogenesis”. Also, the “% Disease free joints” value in test [1] (10 mg/kg MEDI1/5, 10 mg/ml Isotype control (so in the source), 10 mg/kg) worked out at 31%. In addition, the “clinical signs of disease progression (arthritic score) (in words)” value in test [1] was “Reductions in clinical signs of disease progression; also recorded: reduction”; in test [2], “modest reductions in clinical signs of disease progression”. The “extent of retina vasculature (in words)” value with retinal angiogenesis (MEDI1/5 0.3 mg/kg) is given as “extend to the outer edge of retina”. For the same molecule, the “retinal angiogenesis (in words)” value with retinal angiogenesis (MEDI1/5 0.3, 1.0 and 10 mg/kg i.p. at p1, p3, p5, retinas at p10) is recorded as “dose-dependent inhibition of retinal angiogenesis; also recorded: inhibited in a dose-dependent fashion”. Further, the “binding profile for Ang-2 compared to 3.19.3 (in words)” value in the test with Ang-2 is given as “very similar binding profile”.

The values above are taken from patent US8507656B2, “Stabilized angiopoietin-2 antibodies and uses thereof” (MedImmune Limited, priority 2008, dated 2013).
